Data set [1] has as its target T1, geranylgeranyl pyrophosphate synthase (GGPPS) (Homo sapiens, UniProt O95749, Y246D/C247L).
T1 construct: gene GGPS1

Data set [2] concerns the molecule itself. Put plainly: SEC; HiLoad 16/600 Superdex 200 step of the purification; 10 mM HEPES pH 7.5, 500 mM NaCl, 2 mM β-mercaptoethanol, 5% glycerol; mass estimated from a standard curve; self-association.
Data set [3] concerns the molecule itself. In words: differential scanning fluorimetry (Tm) + native gel or EMSA; oligomeric state inferred from Tm without inhibitor (10 mM HEPES pH 7.5, 100 mM NaCl, 3 mM MgCl2, 0.5 mM TCEP, 5 μM protein), supported by native-PAGE (S2 Fig); self-association.

These results are taken from publication PMC11734896, “Engineering dimer mutants of human geranylgeranyl pyrophosphate synthase” (PLOS ONE, 2025).

For `C=C(C)CCO[P@@](=O)(O)OP(=O)(O)O` [IPP, isopentenyl pyrophosphate], the “X-ray crystal structure, 2.1 Å” value in data set [1] is reported as “clearly indicated the presence of IPP within its anticipated binding site in one subunit of the dimer mutant”.

B1: wild-type human geranylgeranyl pyrophosphate synthase (enzyme)
chain: MEKTQETVQRILLEPYKYLLQLPGKQVRTKLSQAFNHWLKVPEDKLQIIIEVTEMLHNASLLIDDIEDNSKLRRGFPVAHSIYGIPSVINSANYVYFLGLEKVLTLDHPDAVKLFTRQLLELHQGQGLDIYWRDNYTCPTEEEYKAMVLQKTGGLFGLAVGLMQLFSDYKEDLKPLLNTLGLFFQIRDDYANLHSKEYSENKSFCEDLTEGKFSFPTIHAIWSRPESTQVQNILRQRTENIDIKKYCVHYLEDVGSFEYTRNTLKELEAKAYKQIDARGGNPELVALVKHLSKMFKEENE
notes: geranylgeranyl pyrophosphate synthase (GGPPS), human; theoretical subunit mass printed as 37,424 Da; The printed subunit mass of 37,424 Da is larger than that of the untagged natural protein as I recall it, so a tag was probably kept; also called GGPPS; WT GGPPS
As a reminder, the stoichiometry N is the number of molecules, sites or subunits per partner or assembly. On to B1, for which the “stoichiometry N” value in data set [2] was 6.

B2: human GGPPS Y246D/C247L mutant (enzyme)
chain: MEKTQETVQRILLEPYKYLLQLPGKQVRTKLSQAFNHWLKVPEDKLQIIIEVTEMLHNASLLIDDIEDNSKLRRGFPVAHSIYGIPSVINSANYVYFLGLEKVLTLDHPDAVKLFTRQLLELHQGQGLDIYWRDNYTCPTEEEYKAMVLQKTGGLFGLAVGLMQLFSDYKEDLKPLLNTLGLFFQIRDDYANLHSKEYSENKSFCEDLTEGKFSFPTIHAIWSRPESTQVQNILRQRTENIDIKKDLVHYLEDVGSFEYTRNTLKELEAKAYKQIDARGGNPELVALVKHLSKMFKEENE
notes: also called DL; DL mutant
B2: the “stoichiometry N” value in data set [2] is 2.

B3: human GGPPS Y246K/C247L mutant (enzyme)
chain: MEKTQETVQRILLEPYKYLLQLPGKQVRTKLSQAFNHWLKVPEDKLQIIIEVTEMLHNASLLIDDIEDNSKLRRGFPVAHSIYGIPSVINSANYVYFLGLEKVLTLDHPDAVKLFTRQLLELHQGQGLDIYWRDNYTCPTEEEYKAMVLQKTGGLFGLAVGLMQLFSDYKEDLKPLLNTLGLFFQIRDDYANLHSKEYSENKSFCEDLTEGKFSFPTIHAIWSRPESTQVQNILRQRTENIDIKKKLVHYLEDVGSFEYTRNTLKELEAKAYKQIDARGGNPELVALVKHLSKMFKEENE
notes: also called KL; KL mutant
With B3, the “stoichiometry N” value in data set [3] amounted to 2.

B4: human GGPPS Y246D/C205A mutant (enzyme)
chain: MEKTQETVQRILLEPYKYLLQLPGKQVRTKLSQAFNHWLKVPEDKLQIIIEVTEMLHNASLLIDDIEDNSKLRRGFPVAHSIYGIPSVINSANYVYFLGLEKVLTLDHPDAVKLFTRQLLELHQGQGLDIYWRDNYTCPTEEEYKAMVLQKTGGLFGLAVGLMQLFSDYKEDLKPLLNTLGLFFQIRDDYANLHSKEYSENKSFAEDLTEGKFSFPTIHAIWSRPESTQVQNILRQRTENIDIKKDCVHYLEDVGSFEYTRNTLKELEAKAYKQIDARGGNPELVALVKHLSKMFKEENE
notes: also called DA; DA mutant
For B4, in data set [3], the “stoichiometry N” value turned out to be 2.
